The target in the experiment is SARS-CoV-2 main protease (Mpro) H172Y (SARS-CoV-2).

Take “Dabcyl-KTSAVLQ↓SGFRKM-E(Edans)-NH2 FRET substrate (peptide)”: the Michaelis constant Km, FRET-based cleavage assay (400 nM enzyme, substrate 10 to 320 μM, 20 mM HEPES, 120 mM NaCl, pH 7.0) amounted to 803 μM.
